Laboratory results as given in patent US20180230200A1 (CITY OF HOPE, published 2018).

Assays:
[1] = molecular target: gH/gL/UL128/UL130/UL131A pentamer complex (PC) of HCMV strain TB40/E virus (human cytomegalovirus strain TB40/E); assay: cell-based or functional assay
[2] = molecular target: gH/gL/UL128/UL130/UL131A pentamer complex (PC) of HCMV strain TR virus (human cytomegalovirus strain TR); assay: cell-based or functional assay
[3] = molecular target: T1, UL130 expressed from MVA in BHK-21 cells (human cytomegalovirus, UniProt P16772 1-214); assay: intracellular FC, MVA-infected BHK-21
T1 construct: whole, on cells

[4] = molecular target: T2, UL131A expressed from MVA in BHK-21 cells (human cytomegalovirus, UniProt F5HET4 19-129); assay: intracellular FC, MVA-infected BHK-21
T2 construct: whole, on cells

[5] = molecular target: T3, UL130/UL131A co-expressed from MVA in BHK-21 cells (human cytomegalovirus, UniProt P16772 1-214; F5HET4 19-129); assay: intracellular FC, MVA-infected BHK-21
T3 construct: whole, on cells

[6] = molecular target: T4, gH expressed from MVA in BHK-21 cells (human cytomegalovirus, UniProt P12824 24-743); assay: intracellular FC, MVA-infected BHK-21
T4 construct: whole, on cells

[7] = molecular target: T5, gH/gL co-expressed from MVA in BHK-21 cells (human cytomegalovirus, UniProt P12824 24-743; P16832 31-278); assay: intracellular FC, MVA-infected BHK-21
T5 construct: whole, on cells

[8] = molecular target: T6, gH/gL/UL130 co-expressed from MVA in BHK-21 cells (human cytomegalovirus, UniProt P12824 24-743; P16832 31-278; P16772 1-214); assay: intracellular FC, MVA-infected BHK-21
T6 construct: whole, on cells

[9] = molecular target: T7, gH/gL/UL131A co-expressed from MVA in BHK-21 cells (human cytomegalovirus, UniProt P12824 24-743; P16832 31-278; F5HET4 19-129); assay: intracellular FC, MVA-infected BHK-21
T7 construct: whole, on cells

[10] = molecular target: T8, gH/gL/UL130/UL131A co-expressed from MVA in BHK-21 cells (human cytomegalovirus, UniProt P12824 24-743; P16832 31-278; P16772 1-214; F5HET4 19-129); assay: intracellular FC, MVA-infected BHK-21
T8 construct: whole, on cells

KLH-K15M = molecular target: T9, KLH-K15M (human cytomegalovirus); assay: ELISA with KLH-coupled peptides (FIG. 11A)
T9 peptide: KHKRLDVCRAKMGYM

KLH-K14CS = molecular target: T10, KLH-K14CS; assay: ELISA with KLH-coupled peptides (FIG. 11A)
T10 peptide: KRLDVSRAKMGYMC

KLH-K16CS = molecular target: T11, KLH-K16CS; assay: ELISA with KLH-coupled peptides (FIG. 11A)
T11 peptide: KHKRLDVSRAKMGYMC

[11] = molecular target: T12, gH/gL/UL128/UL130/UL131A pentamer complex expressed from MVA-PC in BHK-21 cells (human cytomegalovirus, UniProt P12824 24-743; P16832 31-278; P16837 28-171; P16772 1-214; F5HET4 19-129); assay: FC, biotinylated NAb titrated on MVA-PC-infected BHK-21 (cell surface PC)
T12 construct: whole, on cells

[12] = molecular target: T12, gH/gL/UL128/UL130/UL131A pentamer …; assay: FC competition, MVA-PC BHK-21; unlabelled row Ab; competitor: biotinylated 1B2
[13] = molecular target: T12, gH/gL/UL128/UL130/UL131A pentamer …; assay: FC competition, MVA-PC BHK-21; unlabelled row Ab; competitor: biotinylated 12E2
[14] = molecular target: T12, gH/gL/UL128/UL130/UL131A pentamer …; assay: FC competition, MVA-PC BHK-21; unlabelled row Ab; competitor: biotinylated 13B5
[15] = molecular target: T12, gH/gL/UL128/UL130/UL131A pentamer …; assay: FC competition, MVA-PC BHK-21; unlabelled row Ab; competitor: biotinylated 21F6
[16] = molecular target: T12, gH/gL/UL128/UL130/UL131A pentamer …; assay: FC competition, MVA-PC BHK-21; unlabelled row Ab; competitor: biotinylated 18F10
[17] = molecular target: T12, gH/gL/UL128/UL130/UL131A pentamer …; assay: FC competition, MVA-PC BHK-21; unlabelled row Ab; competitor: biotinylated 54E11

B1: 13B5 (antibody, V domains shown)
VH: QVTLKESGPGILKPSQTLSLTCSFSGFSLTTSGLGVGWIRQPSGKGLEWLAHIWWDDDKYFNPSLRNQLTISKDTSRNQVFLEITSVTTADTATYYCVRSLYDYDEGYYFDSWGQGTTLTVSS
VL: EIVMIQSPATLSVNPGDRVSLSCRASQSISDYLHWYQQKSHESPRLLIKYASQSISGIPSRFSGSGSGSDFTLSINSVEPEDVGVYYCQNGHTFPPTFGGGTKLEIK
notes: also called NAb 13B5; 1365
- IC50, inhibition of TB40/E cell-to-cell spread in ARPE-19 [1]: 22 µg/mL
- IC50, neutralization of TB40/E infection of ARPE-19 [1]: 0.015 µg/mL
- IC50, neutralization of TB40/E infection of CTB [1]: 0.0998 µg/mL
- IC50, neutralization of TB40/E infection of HUVEC [1]: 0.012 µg/mL
- IC50, neutralization of TB40/E infection of MRC-5 [1]: > 25 µg/mL
- IC50, inhibition of TR cell-to-cell spread in ARPE-19 [2]: 21 µg/mL
- IC50, neutralization of TR infection of ARPE-19 [2]: 0.0199 µg/mL
- IC50, neutralization of TR infection of HUVEC [2]: 0.0077 µg/mL
- IC50, neutralization of TR infection of MRC-5 [2]: > 25 µg/mL
- binding result [3]: no binding
- binding result [4]: no binding
- binding result [5]: no binding
- binding result [6]: no binding
- binding result [7]: no binding
- binding result [8]: no binding
- binding result [9]: no binding
- binding result [10]: no binding
- binding result (KLH-K15M): binds
- binding result (KLH-K14CS): binds
- binding result (KLH-K16CS): binds
- EC50 [11]: 0.68 nM
- Binding Inhibition (%) [12]: 0%
- Binding Inhibition (%) [13]: 0%
- Binding Inhibition (%) [14]: 100%
- Binding Inhibition (%) [15]: 0%
- Binding Inhibition (%) [16]: 0%
- Binding Inhibition (%) [17]: 0%
